Here are results for 13 molecules from patent US20260152559A1 (Janssen / Centocor, published 2026).

Residue numbers refer to the chain shown, from its start.

Sequences and labels used below:
B1: CAR1 (HL_HCG5_LCD6_20AA) (other)
chain: QVQLQESGPGLVKPSDTLSLTCAVSGNSITSDYAWNWIRQFPGKGLEWMGYISYSGSTTYNPSLKSRVTISRDTSKNQFSLKLSSVTPVDTAVYYCATGYYYGSGFWGQGTLVTVSSGGSEGKSSGSGSESKSTGGSDIVLTQSPDSLAVSLGERATINCKASESVEYFGTSLMHWYQQKPGQPPKLLIYAASNRESGVPDRFSGSGSGTDFTLTIQSVQAEDVSVYFCQQTRKVPYTFGQGTKLEIKTSTPAPRPPTPAPTIASQPLSLRPEACRPAAGGAVHTRGLDFACDIYIWAPLAGTCGVLLLSLVITLYCKRGRKKLLYIFKQPFMRPVQTTQEEDGCSCRFPEEEEGGCELRVKFSRSADAPAYKQGQNQLYNELNLGRREEYDVLDKRRGRDPEMGGKPRRKNPQEGLYNELQKDKMAEAYSEIGMKGERRRGKGHDGLYQGLSTATKDTYDALHMQALPPR
notes: Chimeric antigen receptor (scFv, CD8a hinge and transmembrane region, 4-1BB and CD3-zeta domains) on JNL cells or primary human T cells; also called hK2 CAR; pDR000083431
B2: CAR2 (HL_HCG5_LCHumanized_20AA) (other)
chain: B1 chain with Q217S, V219L, S225A, F228Y
notes: Chimeric antigen receptor on JNL cells or primary human T cells; also called hK2 CAR; pDR000083432
B3: CAR13 (HL_HCHumanized_LCHumanized_20AA) (other)
chain: B1 chain with F41P, M49I, I70M, P88A, Q217S, V219L, S225A, F228Y
notes: Chimeric antigen receptor with the hu11B6 scFv in VH-linker-VL order, on JNL cells or primary human T cells; also called 11B6_HL; parental 11B6 CAR HL
B4: CAR6 (LH_LCHumanized_HCF3_20AA) (other)
chain: DIVLTQSPDSLAVSLGERATINCKASESVEYFGTSLMHWYQQKPGQPPKLLIYAASNRESGVPDRFSGSGSGTDFTLTISSLQAEDVAVYYCQQTRKVPYTFGQGTKLEIKGGSEGKSSGSGSESKSTGGSQVQLQESGPGLVKPSDTLSLTCAVSGNSITSDYAWNWIRQFPGKGLEWIGYISYSGSTTYNPSLKSRVTISRDTSKNQFSLKLSSVTPVDTAVYYCATGYYYGSGFWGQGTLVTVSSTSTPAPRPPTPAPTIASQPLSLRPEACRPAAGGAVHTRGLDFACDIYIWAPLAGTCGVLLLSLVITLYCKRGRKKLLYIFKQPFMRPVQTTQEEDGCSCRFPEEEEGGCELRVKFSRSADAPAYKQGQNQLYNELNLGRREEYDVLDKRRGRDPEMGGKPRRKNPQEGLYNELQKDKMAEAYSEIGMKGERRRGKGHDGLYQGLSTATKDTYDALHMQALPPR
notes: Chimeric antigen receptor on JNL cells or primary human T cells; also called hK2 CAR; pDR000083440
B5: CAR7 (LH_LCHumanized_HCG5_20AA) (other)
chain: B4 chain with I180M
notes: Chimeric antigen receptor on JNL cells or primary human T cells; also called hK2 CAR; pDR000083441
B6: CAR15 (LH_LCHumanized_HCHumanized_20AA) (other)
chain: B4 chain with F172P, I201M, P219A
notes: Chimeric antigen receptor with the hu11B6 scFv in VL-linker-VH order, on JNL cells or primary human T cells; also called 11B6_LH; parental 11B6 CAR LH
B7: KL2B53 (Fab) (Fab, V domains shown)
VH: EVQLVESGGGVVQPGRSLRLSCVASGFTFSSYDIHWVRQAPGKGLEWVAIISYDGSKKDYTDSVKGRFTISRDNSKNTLYLQMDSLRVEDSAVYSCARESGWSHYYYYGMDVWGQGTMVTVSS
VL: DIVMTQSPSSLSASVGDRVTITCRASQDISNYLAWYQQKPGKVPKFLIYAASTLHSGVPSRFSGSGSGTDFTLTISSLQPEDVATYYCQKYNSAPYTFGQGTRLEIK
B8: KL2B359 (scFv-LH-Fc) (Fc fusion)
chain: EIVLTQSPATLSLSPGERATLSCRASESVEYFGTSLMHWYQQKPGQPPRLLIYAASNVESGIPARFSGSGSGTDFTLTISSVEPEDFAVYFCQQTRKVPYTFGGGTKVEIKGGSEGKSSGSGSESKSTGGSQVQLQESGPGLVKPSQTLSLTCTVSGNSITSDYAWNWIRQFPGKRLEWIGYISYSGSTTYNPSLKSRVTISRDTSKNQFSLKLSSVTAADTAVYYCATGYYYGSGFWGQGTLVTVSSEPKSSDKTHTCPPCPAPEAAGGPSVFLFPPKPKDTLMISRTPEVTCVVVSVSHEDPEVKFNWYVDGVEVHNAKTKPREEQYNSTYRVVSVLTVLHQDWLNGKEYKCKVSNKALPAPIEKTISKAKGQPREPQVYVLPPSREEMTKNQVSLLCLVKGFYPSDIAVEWESNGQPENNYLTWPPVLDSDGSFFLYSKLTVDKSRWQQGNVFSCSVMHEALHNHYTQKSLSLSPG
notes: also called KL2B359-LH-scFv-Fc
B9: KL2B494 (Fab) (Fab, V domains shown)
VH: QVQLVESGGGLVQPGGSLRLSCAASGFTFSHYAMSWVRQAPGKGLEWVSTIGGSGGSTYYADSVKGRFTISRDNSKNTLYLQMNSLRAEDTAVYYCAKPHIVMVTALLYDGMDVWGQGTMVTVSS
VL: SSELTQPPSVSVAPGQTARITCGGNNIGSKSVHWYQQKPGQAPVLVVYDDSDRPSGIPERFSGSNSGNTATLTISRVEAGDEADYYCQVWDSSSDHVVFGGGTKLTVL
B10: KL2B30 (Fab) (Fab, V domains shown)
VH: QVQLQESGPGLVKPSETLSLTCTVSGGSISSYYWSWIRQPPGKGLEWIGYIYYSGSTNYNPSLKSRVTISVDTSKNQFSLKLSSVTAADTAVYYCAGTTIFGVVTPNFYYGMDVWGQGTTVTVSS
VL: DIQMTQSPSFLSASVGDRVTITCRASQGISSYLAWYQQKPGKAPKFLIYAASTLQSGVPSRFSGSGSGTEFTLTISSLQPEDFATYYCQQLNSYPLTFGGGTKVEIK
B11: KL2B413 (scFv-LH-Fc) (Fc fusion)
chain: EIVLTQSPSFLSASVGDRVTITCRASQGISSYLSWYQQKPGKAPKLLIYATSTLQSGVPSRFSGSGSGTEFTLTISSLQPEDFATYYCQQLNSYPRTFGQGTKVEIKGGSEGKSSGSGSESKSTGGSEVQLVESGGGLVQPGGSLRLSCAASGFTFSSYWMTWVRQAPGKGLEWVANIKQDGSERYYVDSVKGRFTISRDNAKNSLYLQMNSLRAEDTAVYYCARDQNYDILTGHYGMDVWGQGTTVTVSSEPKSSDKTHTCPPCPAPEAAGGPSVFLFPPKPKDTLMISRTPEVTCVVVSVSHEDPEVKFNWYVDGVEVHNAKTKPREEQYNSTYRVVSVLTVLHQDWLNGKEYKCKVSNKALPAPIEKTISKAKGQPREPQVYVLPPSREEMTKNQVSLLCLVKGFYPSDIAVEWESNGQPENNYLTWPPVLDSDGSFFLYSKLTVDKSRWQQGNVFSCSVMHEALHNHYTQKSLSLSPG
notes: also called KL2B413-LH-scFv-Fc
B12: KL2B467 (Fab) (Fab, V domains shown)
VH: QVQLVESGGGVVQPGRSLRLSCAASGFTFSYYGMHWVRQAPGKGLEWVAFISYDGSNKYYADSVKGRFTISRDNSKNTLYLQMNSLRAEDTAVYYCAHLPYSGSYWAFDYWGQGTQVTVSS
VL: QSVLTQPPSVSVAPGQTASITCGGDNIGSKSVHWYQQKPGQAPVLVVYDNSDRPSGIPERFSGSNSGTTATLTISRVEAGDEADYYCQVWDSSSDHPVVFGGGTKVTV
B13: KL2B242 (Fab) (Fab, V domains shown)
VH: QVQLQESGPGLVKPSETLSLTCTVSGGSISSYYWSWLRQPAGSGLEWIGRLYVSGFTNYNPSLKSRVTLSLDPSRNQLSLKLSSVTAADTAVYYCAGDSGNYWGWFDPWGQGTLVTVSS
VL: SYELTQPPSVSVSPGETASITCSGDQLGENYACWYQQKPGQSPVLVIYQDSKRPSGIPERFSGSNSGNTATLTISGTQALDEADYYCQAWDNSIVVFGGGTKLTVL

One test deals with T1, kallikrein related peptidase 2 (hK2), soluble (human, UniProt P20151 19-261, biotin label in the CAR staining assays (site not stated)).
T1 construct: also called KLK2; human KLK2 protein
T1 sequence (P20151 19-261): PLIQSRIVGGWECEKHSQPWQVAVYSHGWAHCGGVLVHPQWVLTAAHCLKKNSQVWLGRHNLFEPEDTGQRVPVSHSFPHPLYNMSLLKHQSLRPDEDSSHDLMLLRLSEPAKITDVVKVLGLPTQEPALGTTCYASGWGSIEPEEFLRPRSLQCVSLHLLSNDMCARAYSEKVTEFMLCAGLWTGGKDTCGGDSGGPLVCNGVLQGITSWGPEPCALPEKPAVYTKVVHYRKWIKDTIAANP
As to the kind of experiment: flow cytometry, primary human T cells transduced with the CAR lentivirus (MOI 3), biotinylated hK2 (1 ug/ml) then streptavidin-PE, 14 days after transduction; UTD gate 0.086. For orientation: A flow cytometer gives signals particle by particle.
Consider B1, for which the “% of cells in the hK2CAR+ CD3+ gate” value stood at 20%.
For B2, the “% of cells in the hK2CAR+ CD3+ gate” value was 23.6%.
In the case of B3, the “% of cells in the hK2CAR+ CD3+ gate” value was determined as 6.12%.
Still for that read-out and setting: then B4, with 27.8%; and B5, with 35%.
In the case of B6, the “% of cells in the hK2CAR+ CD3+ gate” value turned out to be 22.6%.

The target of another test is T1, kallikrein related peptidase 2 (hK2), …. Nature of the test: SPR; antibody captured on anti-Fc sensor chip, soluble hK2 injected; 1:1 Langmuir fit, KD = koff/kon.
Procedure: Affinity of selected hK2 antibodies for soluble hK2 was measured by surface plasmon resonance (SPR). […] Antibodies were captured on a sensor chip coated with an anti-Fc antibody followed by injection of soluble hK2 at various concentrations and specified association and dissociation times. Post dissociation, the surface was regenerated with an appropriate solution to prepare for the next interaction. Kinetic information (on-rate and off-rate constants) were extracted by fitting sensorgrams to the 1:1 Langmuir model. Binding affinity (KD) are reported as the ratio of rate constants (koff/kₒₙ).
Broadly, the Kd is the equilibrium constant for the complex coming apart. Read a high Kd as weaker binding. For B7, the Kd was 80 pM.
Molecule B8 came in with a dissociation constant Kd of 700 to 1000 pM.
B9 returned a Kd of 53 pM.
The molecule B10 returned a Kd of 460 pM.
The same measure, in the same setting: then B11, with 34300 pM; and B12, with 78 pM.
On to B13, for which the dissociation constant (Kd) turned out to be 40 pM.
